Measured values from paper doi:10.1101/2025.08.24.672003, “Structural characterization of MAM01 and other cost-effective engineered monoclonal antibodies for malaria prevention” (bioRxiv, 2025).
Residue numbers refer to the chain shown, from its start. Ends that are not written are not given here.

T1: PfCSP N-terminal junctional region peptide, biotinylated (KQPADGNPDPNANPNV) (Plasmodium falciparum, also: biotin label, end not given here)
T1 peptide: KQPADGNPDPNANPNV

T2: PfCSP junctional region peptide, biotinylated (NPDPNANPNVDPNANP) (Plasmodium falciparum, also: biotin label, end not given here)
T2 peptide: NPDPNANPNVDPNANP

T3: PfCSP major repeat region peptide NPNA3, biotinylated (Plasmodium falciparum, also: biotin label, end not given here)
T3 peptide: NPNANPNANPNA

T4: PfCSP minor repeat region peptide, biotinylated (NVDPNANPNVDPNANPNVDP) (Plasmodium falciparum, biotinylated (end not stated))
T4 peptide: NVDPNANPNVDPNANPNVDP

T5: PfCSP N-terminal junctional region peptide, biotinylated (KQPADGNPDPNANPNV) (Plasmodium falciparum 3D7, also: biotinylated, end not given here)
T5 construct: Plasmodium falciparum circumsporozoite protein (PfCSP), N-terminal junctional region; source: synthetic peptide, bought: Innopep Inc
T5 chain: KQPADGNPDPNANPNV

T6: PfCSP junctional region peptide, biotinylated (NPDPNANPNVDPNANP) (Plasmodium falciparum 3D7, also: biotinylated, end not given here)
T6 construct: Plasmodium falciparum circumsporozoite protein (PfCSP), junctional region; source: synthetic peptide, bought: Innopep Inc
T6 chain: NPDPNANPNVDPNANP

B1: Fab MS-1805 (engineered AB007088) (Fab, V domains shown)
VH: QVQLVESGGGVVQPGRSLRLSCAASGFTFNTYGMHWVRQAPGKGLEWVAIIWYDGSQKYYADSVQGRFTISRDNHKNTLYLQMNSLRAEDTAVYFCVRVRFSVGPHGSAFDLWGQGTMVTVSS
VL: GVQMTQSPSTLSASVGDRVTLTCRASQSISSWLAWYQQKPGKAPKLLIYDASSLESGVPSRFSGSGSGTEFTLTISSLQPDDFATYYCQQYNSYSFWTFGQGTKVEIK
B2: Fab 7088 (antigen-binding fragment of mAb AB007088) (Fab, V domains shown)
VH: B1 VH with T28A, A40T, T69I, Y80S, S85G, T120I
VL: B1 VL
B3: Fab 224 (antigen-binding fragment of mAb AB000224) (Fab, V domains shown)
VH: EVQLVESGGGLVQPGRSLRLPCTASGFSFGDHAMSWVRQAPGKGLEWVGFIRKTTYGATTHYAAAVRGRFTISRDDSKSIVYLQMNSLKTEDTAVYFCTRVQLDYGPGYQYYGMDVWGQGTTVTVSS
VL: ESVLTQPPSVSGAPGQRVTISCTGMNSNIGAGYDVYWYQQLPGRAPKLLIYGNSNRPSGVPDRFSGSRSGTSASLAITGLQAEDEADYYCQSYDTSLNGWAFGGGTKLTVL
notes: Fab 224 heavy chain (IGHV3-49) is in PDB 6WFY (cited) and PDB 9NOB (apo, deposited here); Fab 224 light chain (IGLV1-40) is in PDB 6WFY (cited) and PDB 9NOB (apo, deposited here); IGHV3-49/IGLV1-40; the expression methods name only the Fab genes of MAM01, 7088 and MS-1805, not Fab 224
B4: Fab MAM01 (engineered AB000224) (Fab, V domains shown)
VH: B3 VH with P21S, I80T, T90A, T99A
VL: B3 VL with E1Q, R44T
notes: as the heavy chain of m1 (Fab 224, PDB 6WFY) with the stated framework changes (Kabat numbering); as the light chain of m1 (Fab 224, PDB 6WFY) with the stated changes (Kabat numbering); Fab only; the LS mutations of the Fc are not part of it; also called MS-1797; MAM01 Fab; source: ExpiCHO cells, purified (HiTrap Protein G HP, size exclusion chromatography)

Columns and labels:
[1] = target: T1, PfCSP N-terminal junctional region …; assay: BLI
[2] = target: T2, PfCSP junctional region peptide, …; assay: BLI
[3] = target: T3, PfCSP major repeat region peptide …; assay: BLI
[4] = target: T4, PfCSP minor repeat region peptide, …; assay: BLI
[5] = target: T5, PfCSP N-terminal junctional region …; assay: BLI; biotinylated peptides (10 ug/mL) loaded on streptavidin biosensors; Fabs in solution at 200, 100, 50, 25, 12.5 nM; kinetics buffer 1X PBS, 0.01% BSA, 0.002% Tween 20; 300 s association, 300 s dissociation; Octet Red; 1:1 global fit; conditions: both partners purified
[6] = target: T6, PfCSP junctional region peptide, …; assay: as above; conditions: both partners purified

Binder	Kd [1]	Kd [2]	Kd [3]	Kd [4]	binding result [5]	Kd [6]
B1	23 nM	20 nM	25 nM	28 nM		
B2	15 nM	16 nM	15 nM	20 nM		
B3		72 nM	3.5 nM	2.9 nM	no binding (tested: 200 nM)	
B4			4.1 nM	3.5 nM	no binding (tested: 200 nM)	108 nM
